Key:
[1] = target: the molecule itself; test: SEC; lysate of 16 ovaries of non-irradiated or γ-irradiated (0.52 Gy) P5 mice, Superose 6 PC 3.2/30, 4°C, 50 mM sodium phosphate, 100 mM NaCl, phosphatase inhibitors; fractions blotted with 4A4; dimer fraction 1.55 ml, tetramer fraction 1.3 ml
[2] = target: the molecule itself; test: SEC; lysate of ovaries of irradiated mice incubated with λ-Protein Phosphatase (30°C, 45 min, 1.25 mM MnCl2), then Superose 6 PC 3.2/30 and western blot
[3] = target: the molecule itself; test: AUC; sedimentation velocity, 45,000 rpm, 4 μM protein, 4°C, 20 mM potassium phosphate pH 7.5, 200 mM NaCl, 2 mM dithiothreitol

B1: TAp63α in oocytes of non-irradiated mice (natural protein, UniProt O88898-1 40-680, looked up)
chain: MSQSTQTSEFLSPEVFQHIWDFLEQPICSVQPIELNFVDEPSENGATNKIEISMDCIRMQDSDLSDPMWPQYTNLGLLNSMDQQIQNGSSSTSPYNTDHAQNSVTAPSPYAQPSSTFDALSPSPAIPSNTDYPGPHSFDVSFQQSSTAKSATWTYSTELKKLYCQIAKTCPIQIKVMTPPPQGAVIRAMPVYKKAEHVTEVVKRCPNHELSREFNEGQIAPPSHLIRVEGNSHAQYVEDPITGRQSVLVPYEPPQVGTEFTTVLYNFMCNSSCVGGMNRRPILIIVTLETRDGQVLGRRCFEARICACPGRDRKADEDSIRKQQVSDSAKNGDGTKRPFRQNTHGIQMTSIKKRRSPDDELLYLPVRGRETYEMLLKIKESLELMQYLPQHTIETYRQQQQQQHQHLLQKQTSMQSQSSYGNSSPPLNKMNSMNKLPSVSQLINPQQRNALTPTTMPEGMGANIPMMGTHMPMAGDMNGLSPTQALPPPLSMPSTSHCTPPPPYPTDCSIVSFLARLGCSSCLDYFTTQGLTTIYQIEHYSMDDLASLKIPEQFRHAIWKGILDHRQLHDFSSPPHLLRTPSGASTVSVGSSETRGERVIDAVRFTLRQTISFPPRDEWNDFNFDMDSRRNKQQRIKEEGE
notes: endogenous murine TAp63α of oocytes; also called TAp63α (NIRR); source: endogenous, ovary lysate of non-irradiated P5 CD-1 mice
- stoichiometry N [1]: 2

B2: λ-phosphatase-treated TAp63α obtained from irradiated oocytes (natural protein, UniProt O88898-1 40-680, looked up)
chain: B1 chain
notes: endogenous murine TAp63α of irradiated oocytes after dephosphorylation in the lysate; kept apart because it was first phosphorylated in vivo and then dephosphorylated; also called dephosphorylated TAp63α (IRR + λPP); source: endogenous, ovary lysate of irradiated P5 mice, treated with λ-Protein Phosphatase (30°C, 45 min)
- stoichiometry N [2]: 4

B3: phosphorylated TAp63α in oocytes of γ-irradiated mice (natural protein, UniProt O88898-1 40-680, looked up)
chain: B1 chain
modifications: phosphorylated after γ-irradiation; sites not stated
notes: endogenous murine TAp63α of oocytes, phosphorylated after DNA damage; both dimer and tetramer fractions hold protein after irradiation; also called TAp63α (IRR); source: endogenous, ovary lysate of P5 CD-1 mice 6 hr after 0.52 Gy γ-irradiation
- stoichiometry N [1]: 4

B4: MBP-TAp63γ (natural protein, mouse, UniProt O88898-5 40-483, looked up)
chain: MSQSTQTSEFLSPEVFQHIWDFLEQPICSVQPIELNFVDEPSENGATNKIEISMDCIRMQDSDLSDPMWPQYTNLGLLNSMDQQIQNGSSSTSPYNTDHAQNSVTAPSPYAQPSSTFDALSPSPAIPSNTDYPGPHSFDVSFQQSSTAKSATWTYSTELKKLYCQIAKTCPIQIKVMTPPPQGAVIRAMPVYKKAEHVTEVVKRCPNHELSREFNEGQIAPPSHLIRVEGNSHAQYVEDPITGRQSVLVPYEPPQVGTEFTTVLYNFMCNSSCVGGMNRRPILIIVTLETRDGQVLGRRCFEARICACPGRDRKADEDSIRKQQVSDSAKNGDAFRQNTHGIQMTSIKKRRSPDDELLYLPVRGRETYEMLLKIKESLELMQYLPQHTIETYRQQQQQQHQHLLQKHLLSACFRNELVEPRGEAPTQSDVFFRHSNPPNHSVYP
notes: 193 amino acids less per monomer than TAp63α; cloned into pMAL-c4X; almost equal distribution between dimers and tetramers at 30 nM; source: E. coli (T7 express), purified (Ni-Sepharose, Amylose resin, SEC); not shown: MBP, N-terminal, kept
- stoichiometry N [3]: 4

— publication PMC3087504, “DNA Damage in Oocytes Induces a Switch of the Quality Control Factor TAp63α from Dimer to Tetramer” (Cell, 2011)
